{
  "source": "patent US20240262878A1",
  "about": "“PHOTOACTIVATABLE GASDERMIN PROTEINS” (THE BOARD OF TRUSTEES OF THE UNIVERSITY OF ILLINOIS, priority 2021, published 2024)",
  "molecules": {"B1": {"name": "PhoDer: optogenetically activatable human GSDMD with photocleavable linker between N- and C-terminal domains, SEQ ID NO: 33 (protein)", "chain": "MGSAFERVVRRVVQELDHGGEFIPVTSLQSSTGFQPYCLVVRKPSSSWFWKPRYKCVNLSIKDILEPDAAEPDVQRGRSFHFYDAMDGQIQGSVELAAPGQAKIAGGAAVSDSSSTSMNVYSLSVDPNTWQTLLHERHLRQPEHKVLQQLRSRGDNVYVVTEVLQTQKEVEVTRTHKREGSGRFSLPGATCLQGEGQGHLSQKKTVTIPSGSTLAFRVAQLVIDSDLDVLLFPDKKQRTFQPPATGHKRSTSEGAWPQLPSGLSMMRCLHNGGGSVIPDYFKQSFPEGYSWERSMTYEDGGICIATNDITMEGDSFINKIHFKGTNFPPNGPVMQKRTVGWEASTEKMYERDGVLKGDVKMKLLLKGGGHYRCDYRTTYKVKQKPVKLPDYHFVDHRIEILSHDKDYNKVKLYEHAVARNSTDSMDELYKGGSGGMVSKGEETITSVIKPDMKNKLRMEGNVNGHAFVIEGEGSGKPFEGIQTIDLEVKEGAPLPFAYDILTTAFHYGNRVFTKYPRGGGVPAEGAFTEDFQGLRAEVETISKELELLDRELCQLLLEGLEGVLRDQLALRALEEALEQGQSLGPVEPLDGPAGAVLECLVLSSGMLVPELAIPVVYLLGALTMLSETQHKLLAEALESQTLLGPLELVGSLLEQSAPWQERSTMSLPPGLLGNSWGEGAPAWVLLDECGLELGEDTPHVCWEPQAQGRMCALYASLALLSGLSQEPH", "modifications": "photocleavable linker"}, "B2": {"name": "SEQ ID NO: 40: reversible optogenetic gasdermin variant, modified gasdermin protein of the invention (protein)", "chain": "MGSAFERVVRRVVQELDHGGEFIPVTSLQSSTGFQPYCLVVRKPSSSWFWKPRYKCVNLSIKDILEPDAAEPDVQRGRSFHFYDAMDGQIQGSVELAAPGQAKIAGGAAVSDSSSTSMNVYSLSVDPNTWQTLLHERHLRQPEHKVLQQLRSRGDNVYVVTEVLQTQKEVEVTRTHKREGSGRFSLPGATCLQGEGQGHLSQKKTVTIPSGSTLAFRVAQLVIDSDLDVLLFPDKKQRTFQPPATGHKRSTSEGAWPQLPSGLSMMRCLHNGGGGMLATTLERIEKNFVITDPRLPDNPIIFASDSFLQLTEYSREEILGRNCRFLQGPETDRATVRKIRDAIDNQTEVTVQLINYTKSGKKFWNVFHLQPMRDYKGDVQYFIGVQLDGTERLHGAAEREAVCLIKKTAFQIAEAANDENYFGGGGVPAEGAFTEDFQGLRAEVETISKELELLDRELCQLLLEGLEGVLRDQLALRALEEALEQGQSLGPVEPLDGPAGAVLECLVLSSGMLVPELAIPVVYLLGALTMLSETQHKLLAEALESQTLLGPLELVGSLLEQSAPWQERSTMSLPPGLLGNSWGEGAPAWVLLDECGLELGEDTPHVCWEPQAQGRMCALYASLALLSGLSQEPH"}},
  "key": {"full length human GSDMD": {"test_system": "T1, full length human GSDMD", "T1 sequence": "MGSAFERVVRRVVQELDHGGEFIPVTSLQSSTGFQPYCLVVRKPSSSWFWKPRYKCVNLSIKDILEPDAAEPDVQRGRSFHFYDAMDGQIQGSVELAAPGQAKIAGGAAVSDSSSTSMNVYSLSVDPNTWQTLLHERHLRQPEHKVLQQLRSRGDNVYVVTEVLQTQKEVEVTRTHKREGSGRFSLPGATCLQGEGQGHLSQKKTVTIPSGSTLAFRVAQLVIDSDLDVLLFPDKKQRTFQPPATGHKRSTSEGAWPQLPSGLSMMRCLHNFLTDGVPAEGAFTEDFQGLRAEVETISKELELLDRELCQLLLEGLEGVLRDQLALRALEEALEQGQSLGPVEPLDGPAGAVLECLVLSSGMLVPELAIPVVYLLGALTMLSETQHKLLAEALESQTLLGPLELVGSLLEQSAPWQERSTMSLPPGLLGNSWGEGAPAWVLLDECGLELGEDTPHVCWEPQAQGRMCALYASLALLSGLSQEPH"}, "Hela cells [1]": {"test_system": "Hela cells", "test": "Optogenetic activation of PhoDer, membrane-targeted jRCaMP1b calcium flare imaging and fluctuation analysis", "format": "cell-based", "protocol": "Cloning. Cloning and subcloning were performed using the DH5a strain of E. coli. All mammalian constructs were cloned into the pcDNA3.0 vector with a modified multiple cloning site. Plasmids were generated as follows. Gasdermin D gene was obtained from Addgene. A diffusible optogenetic GSDMD, referred to herein as “PhoDer” and set forth in SEQ ID NO: 33, was constructed according to the reported domains structure by ligating three fragments into the pcDNA3.0 vector in one reaction via Gibson Assembly (New England BioLabs). For each fragment, PCR was specifically designed to create appropriate complementation. The jRCaMP1b gene, encoding a sensitive red protein calcium indicator, was obtained from Addgene. Membrane targeted calcium indicator jRCaMP1b was constructed by ligating a PCR fragment of the calcium indicator into the restriction enzyme sites BamHI and EcoRI in a modified pcDNA3.0 vector carrying a 5′ fragment encoding the N-terminal Lyn kinase localization sequence.\n(§1) Cell Culture. HeLa and RAW264.7 cells were maintained in Dulbecco's Modified Eagle Medium (DMEM) medium supplemented with 10% fetal bovine serum (FBS) and 1% penicillin and streptomycin. Cells were transfected at 50%-70% confluency using LIPOFECTAMINE® 2000 transfection reagent and incubated for 24 hours before imaging. Cells were never serum-starved. To examine endogenous inflammatory activation, RAW264.7 cells were treated with 100 ng/μL lipopolysaccharide (LPS, Invivogen) at the beginning of each experiment. Pretreatment to bias membrane composition by phosphatidylinositol 4,5-bisphosphate (PIP2) modifying enzymes was performed by incubating Hela cells in Hanks' Balanced Salt Solution (HBSS) buffer with inhibitors at 37° C. for 10 minutes to prior imaging at the following concentrations: for phosphoinositide 3-kinase (PI3K), cells were treated 10 μM wortmannin (Tocris); and for phospholipase C (PLC), cells were treated with 10 μM U73122 (Tocris). Cells were removed from the incubator and allowed to come to thermal equilibrium before being imaged in HBSS buffer at room temperature.\nFluorescence Imaging, Optogenetic Activation, and Post-Processing. All epifluorescence imaging was performed on a customized Nikon Ti2-E microscope equipped with individual control over excitation (EX) and emission (EM) filters, a fast LED light source (Lumencor) with fluid-cooled EMCCD (Andor), motorized stage, and examined under a 40× or 100× oil immersion objective under live focus tracking. For RFP, excitation (EX) and emission (EM) filter combinations (maxima/bandwidth in nm) are indicated. Cells were imaged at 12-15 second intervals. Emission intensities of individual cells were background-subtracted before normalization to zero time point, when optogenetic activation began. In the optical setup, optogenetic activation of PhoDer was performed using an EX filter at 440/20 nm for 20-30 ms across whole fields of view. This replicated the progression of endogenous activation of GSDMD observed in LPS-stimulated RAW264.7 cells. […] Where applicable, inhibitors were treated at the indicated concentration for 15 minutes prior to imaging.\nFluctuation Analysis and Quantification. To automate the objective isolation and quantitation of calcium flares, a post-processing algorithm was developed based on principles and normalization scheme detailed in work on photochromic stochastic optical fluctuation imaging (pcSOFI) (Dedecker et al. (2012) Proc. Natl. Acad. Sci. USA 109: 10909-10914). Briefly, fluctuation caused by the flares generate high autocorrelation signals in time-averaged series and yield high contrast at locales of the greatest ion flux. To truly reflect the local flux change, it is then normalized to remove dependence on the number of biosensors reporting at the given location using a scheme detailed previously (Mo et al. (2017) Nat. Methods 14 (4): 427-434). […]"}, "[2]": {"test_system": "RAW264.7 and mouse bone marrow-derived macrophages (BMDM)", "test": "Optogenetic activation of PhoDer in transiently transfected macrophages, calcium response", "format": "cell-based", "conditions": "transiently transfected RAW264.7 and mouse BMDM", "protocol": "as §1\nFluorescence Imaging, Optogenetic Activation, and Post-Processing. […]"}, "Hela cells [3]": {"test_system": "Hela cells", "test": "Modulating molecular transport of a cell by light activation of PhoDer (GFP efflux, phalloidin influx, antibody delivery)", "format": "cell-based", "protocol": "Using the PhoDer protein, it was determined whether a large molecule, i.e., an impermeable dye, fluorescent protein or an IgG antibody, could be transported into or out of a living cell via light-inducible activation of the PhoDer construct.\nGFP Efflux. Cells expressing GFP were transfected with the PhoDer protein and illuminated intermittently for 1 hour. Over time the gasdermin pore grew larger and GFP fluorescence was captured on a fluorescence microscope using a 40× objective.\nPhalloidin Influx. Phalloidin is a cell impermeable dye used in the labeling of F-actin. Cells were transfected with the PhoDer protein and contacted with phalloidin in the cell medium. The cells were subsequently illuminated and permeation of the phalloidin was monitored. […] As such, control gasdermin pore formation was capable of mediating cargo delivery in the absence of cell death.\nAntibody Delivery. Hela cells expressing PhoDer were placed in medium containing a fluorescently tagged anti-tubulin monoclonal IgG antibody (˜150 kDa, ˜14 nm in size). Before exposure to light, antibody fluorescence was evident in the medium. […] Super-resolution imaging of the cells was carried out using STORM (Stochastic Optical Reconstruction Microscopy). […] Advantageously, the cells remained intact and alive thereby allowing for analysis of cytoskeletal tubulin and nuclear tubulin. […] Given that cytoskeletal and nuclear tubulin have distinct functions apart from their structural roles in forming microtubules, delivery of the anti-tubulin antibody via the present invention allows for further subcellular analysis of tubulin in living cells."}, "Hela cells [4]": {"test_system": "Hela cells", "test": "Reversible optogenetics, cyclic activation", "format": "cell-based", "protocol": "Reversible Optogenetics. HeLa cells expressing a modified gasdermin protein of the invention (SEQ ID NO: 40) were subjected to cyclic activation. Whereas gasdermin lacking a photoactivatable linker has no ability to reverse and will kill the cell typically in 30 minutes or less, activation of reversible optogenetic gasdermin allow cells to stay alive for 2 hours or longer. Furthermore, upon closer examination, the cyclic activation pattern can clearly be detected in the response of these cells via autocorrelation function (FIG. 13). The “imprinting” of this cyclic pattern into the cellular response can only be possible if the optogenetic gasdermin protein is reversible."}},
  "note": "“Also recorded” adds a separate entry of the source.",
  "data": [
    {"molecule": "caspase-1", "values": [
      {"measurement": "micro-current recordings in a POPE/POPC planar lipid bilayer", "setting": "full length human GSDMD", "result": "upon the addition of activated GSDMD (mixture with caspase-1 to cleave the C-terminal autoinhibition domain), minute current fluctuations were detected"}
    ]},
    {"molecule": "B1", "values": [
      {"measurement": "average circularity (minor/major radii ratio) of the flares", "setting": "Hela cells [1]", "result": 0.75},
      {"measurement": "pores that persisted after the mean open time and reopened", "setting": "Hela cells [1]", "result": "~57", "unit": "%"},
      {"measurement": "calcium response upon optogenetic activation", "setting": "Hela cells [1]; Hela cells expressing PhoDer, membrane-targeted jRCaMP1b", "result": "caused spontaneous calcium flares at sporadic locations on the plasma membrane"},
      {"measurement": "time in which calcium flares maximized", "setting": "Hela cells [1]; average, n=21 pores", "result": 0.35, "unit": "min"},
      {"measurement": "cooperative coefficient of pore closing", "setting": "Hela cells [1]; mean of n=21, R^2=0.996", "result": 0.73},
      {"measurement": "average time pores were open", "setting": "Hela cells [1]; n=21 pores", "result": 1.55, "unit": "min"},
      {"measurement": "mean diameter reached by calcium flares", "setting": "Hela cells [1]; n=21 pores", "result": "~10", "unit": "μm"},
      {"measurement": "calcium response upon optogenetic activation", "setting": "[2]", "result": "initiated clearly localized transient calcium flares"},
      {"measurement": "time cells observed intact and adherent after antibody delivery", "setting": "Hela cells [3]", "result": "at least 24 hours"},
      {"measurement": "delivery of fluorescently tagged anti-tubulin monoclonal IgG antibody", "setting": "Hela cells [3]; Hela cells, about 5 minute blue-light activation", "result": "the fluorescent antibody was delivered into the interior of the cell"},
      {"measurement": "cell lysis after phalloidin delivery (calcium imaging)", "setting": "Hela cells [3]; blue-light activation", "result": "did not lyse"},
      {"measurement": "phalloidin influx, F-actin labeling", "setting": "Hela cells [3]; blue-light activation, phalloidin in cell medium", "result": "allowed phalloidin to permeate and bind F-actin; also recorded: delivers actin labels into living cells"},
      {"measurement": "GFP efflux", "setting": "Hela cells [3]; cells expressing GFP, illuminated intermittently for 1 hour", "result": "GFP left the cell"}
    ]},
    {"molecule": "B2", "values": [
      {"measurement": "time cells stay alive under activation", "setting": "Hela cells [4]; HeLa cells, cyclic activation", "result": "≥ 2", "unit": "h"},
      {"measurement": "reversibility (autocorrelation function of cyclic activation)", "setting": "Hela cells [4]; activations every 20 cycles", "result": "achieved"}
    ]}
  ]
}
